Source: US6936706

Target: bacterial fusion protein 11-2 (a hybrid of b-galactosidase and human mammary mucin) (human) (UniProt P15941)
Assay: competition RIA against 125I-labeled murine BrE-3 on 11-2 fusion protein; reciprocal of the competitor concentration giving 50% binding

Ka | Binder
2.68e+08 M⁻¹ | murine-human chimeric BrE-3 antibody (ATCC HB 11199, Chimeric BrE-3 A1C10) (antibody, V domains shown) VH: EVKLEESGGGLVQPGGSMKLSCAASGFTFSDAWMDWVRQSPEKGLEWVAEIRNKANNHATYYDESVKGRFTISRDDSKSRVYLQMISLRAEDTGLYYCTGEFANWGQGTLVTVSA VL: DVVMTQTPLSLPVSLGDQASISCRSSQNLVHNNGNTYLYWFLQKSGQSPKLLIYRASIRFSGVPDRFSGSGSETDFTLKISRVEAEDLGVYFCFQGTHVPWTFGGGTKLEIK
3.75e+08 M⁻¹ | murine BrE-3 monoclonal antibody (ATCC No. HB 10028) (antibody, V domains shown) VH: EVKLEESGGGLVQPGGSMKLSCAASGFTFSDAWMDWVRQSPEKGLEWVAEIRNKANNHATYYDESVKGRFTISRDDSKSRVYLQMISLRAEDTGLYYCTGEFANWGQGTLVTVSA VL: DVVMTQTPLSLPVSLGDQASISCRSSQNLVHNNGNTYLYWFLQKSGQSPKLLIYRASIRFSGVPDRFSGSGSETDFTLKISRVEAEDLGVYFCFQGTHVPWTFGGGTKLEIK
